Experimental data reported in the supplement of paper PMC10126150.
± gives the standard deviation of the averaged measurements.

System: ATP
Test: switch fluorescence ratio, 500 uM ATP over buffer (Cy3 cluster intensity, sum of 5 cycles each) (fold (ratio)); higher = stronger signal-on switching upon ATP binding; sequences stand for … in TCGTCGGCAGCGTCAGATGTGTATAAGAGACAGTTTTTTTTTTTTTTTTTTTTTTTTT…TC
Settings: aptamer strand: ATP DNA aptamer (quencher-CACCTGGGGGAGTATTGCGGAGGAAGG + anchor), 100 nM annealed; ATP concentration: 500 uM
How it was run: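 After annealing to 100 nM quencher-labelled ATP aptamer, Cy3-labelled switching-strand clusters on a modified Illumina MiSeq flow-cell were imaged in selection buffer. A second image followed after 15 min with 500 uM ATP at 22 °C, and five such buffer/ATP cycles were done, each separated by NaOH stripping and re-annealing. The fluorescence ratio, averaged per switch-domain sequence, is summed target-cycle over summed buffer-cycle Cy3 intensity per cluster, with clusters outside 100-1000 RFU excluded.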
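Also: ATP exposure 15 min at 22 °C before imaging.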

Point of comparison: GAGTTAAACA, switch fluorescence ratio 0.994 ± 0.021. Against it:
- AGTTTAGGTA — within error, 1.01 ± 0.052
- CTCGCCGATA — within error, 1.03 ± 0.031
- TGTGTCTACA — within error, 1 ± 0.024
- ATTACGGGGT — within error, 1.01 ± 0.044
- GGCTGGTTGG — within error, 1.01 ± 0.017
- ATTATGGCTG — higher, 1.07 ± 0.011
- GCTGCTGGGT — within error, 1.01 ± 0.032
- GCGTTGGTCG — lower, 0.929 ± 0.0014
- GGCGTAGGCC — within error, 1.2 ± 0.29
- AGGGGATGTG — within error, 0.97 ± 0.048
- TCGAGGCGGA — within error, 0.985 ± 0.049
- AAGAGGATG — within error, 0.977 ± 0.023
- TTAGTGATTA — within error, 0.996 ± 0.014
- TTGCTTTAAT — within error, 0.988 ± 0.019
- TTTTTTGCAA — within error, 1.06 ± 0.061
- TCATGTAAGA — within error, 0.998 ± 0.024
- AAAGAGTCGT — within error, 0.9883 ± 0.0027
- CGTGCTGGAA — within error, 0.975 ± 0.045
- AGAGAATACG — within error, 1 ± 0.031
- TGGTATGGGT — within error, 1.23 ± 0.33
- ATTGTCGACT — lower, 0.9681 ± 0.0045
- ATCAAACGAG — within error, 1.006 ± 0.0073
- AACAATATTG — within error, 1.02 ± 0.028
- GCTGCGGGCC — within error, 1.02 ± 0.033
- CTGGATCCTT — higher, 1.05 ± 0.017
- GGGGCACAGC — within error, 1 ± 0.016
- CTGCGTGATG — higher, 1.03 ± 0.011
- CACAAAATAG — within error, 1.45 ± 0.49
- TACAGGTATC — within error, 0.9796 ± 0.0048
- CACTGGGGAT — within error, 0.981 ± 0.046
- CTGTTTTTGA — within error, 0.96 ± 0.061
- GGGGGTGACG — within error, 0.995 ± 0.11
- TATTAGGTAT — within error, 0.961 ± 0.018
- ATGTGAAAGG — within error, 1.02 ± 0.018
- CGGACTAGGT — within error, 1.02 ± 0.011
- AGTGTTGGGT — within error, 1.02 ± 0.01
- GAGGGGAATT — within error, 0.983 ± 0.014
- TTTTTACCGT — higher, 1.12 ± 0.088
- TTTGTGCGTC — within error, 0.977 ± 0.055
- CAATTTGTCT — within error, 1.01 ± 0.028
- TCTGGGTAAT — within error, 0.996 ± 0.0013
- TTATTAGGAT — within error, 0.974 ± 0.024
- GGTGTGGCTC — within error, 1 ± 0.044
- TTAGGGCTGC — within error, 0.98664 ± 0.00045
- AGGGGATAGT — within error, 0.9659 ± 0.0091
- GAAGTCTGGG — within error, 0.9767 ± 0.0021
- ATATTATTGT — within error, 0.9911 ± 0.0085
- TTGATGGTAA — within error, 0.977 ± 0.022
- TAAGTATGTC — within error, 0.995 ± 0.01
- CATGCCAAGC — higher, 1.15 ± 0.045
- TATGGTAGGG — within error, 0.9886 ± 0.0076
- TGTCAGTTAT — within error, 0.979 ± 0.031
- AGGCGGACTG — within error, 1.02 ± 0.13
- CGCAAATCAA — higher, 1.38 ± 0.073
- ATTGTAAAGC — the same, 0.9935 ± 0.0083
- TTTGGTGAAC — within error, 1 ± 0.022
- CATATATTGG — within error, 1.02 ± 0.05
- AATGATTCTT — within error, 0.98 ± 0.016
- GAATTATTTT — within error, 1.12 ± 0.16
- GGTGTTTGGA — within error, 0.986 ± 0.0099
- TGATGGCCGG — within error, 1.05 ± 0.04
- TTTGTGTAAA — within error, 1 ± 0.032
- AAGTGGTATT — within error, 0.992 ± 0.029
- TTGCATGGGC — within error, 1.05 ± 0.063
- GTTTGCAACG — within error, 0.986 ± 0.021
- CATTTTTTAG — within error, 1.01 ± 0.016
- AAATGCCGAT — within error, 0.992 ± 0.015
- TTTAGGGAGC — within error, 1.04 ± 0.029
- CTAATAATAT — within error, 1.01 ± 0.025
- TCTTTTGCAT — higher, 1.06 ± 0.019
- GCATGGGGTT — within error, 0.998 ± 0.031
- GGCCTCGACC — higher, 1.03 ± 0.0086
- AAGCTTTCGG — within error, 1.03 ± 0.016
- TGCTTCTGAA — within error, 0.9635 ± 0.0092
- GATATTTAGT — within error, 0.995 ± 0.011
- TTGGGTTCCT — within error, 1.04 ± 0.11
- TAAGGAGCGG — within error, 0.976 ± 0.013
- ATAATATAAC — within error, 1 ± 0.018
- TTTTTTACCC — within error, 1.01 ± 0.028
- AGGGATGGGG — within error, 0.976 ± 0.016
- CCGTATAGCT — higher, 1.24 ± 0.039
- TTAAGTGGCT — within error, 1.016 ± 0.0095
- AGGGGTACTT — within error, 1 ± 0.049
- TTTTACCGAT — within error, 1.01 ± 0.034
- AGAGTTTGGG — within error, 0.988 ± 0.0099
- AAGTTTATCA — within error, 1.003 ± 0.0032
- GCTGAGGATG — within error, 0.9799 ± 0.0058
- AGGCCTCAGG — within error, 0.99 ± 0.022
- ACGGGCGCAG — the same, 0.994 ± 0.017
- GGAAAGTACG — higher, 1.16 ± 0.045
- GTGGCGCCGC — within error, 0.959 ± 0.047
- AAAGGTTCAA — higher, 1.03 ± 0.011
- GAAGGGGGTG — within error, 1.02 ± 0.039
- AATTTGGCTG — within error, 1.22 ± 0.29
- GGGGGGATTG — within error, 0.99 ± 0.025
- GTTATTAATT — within error, 0.983 ± 0.0036
- TAGCATTGGT — within error, 0.9903 ± 0.0016
- CATTTGCTCT — within error, 1 ± 0.013
- CTTGATAACG — higher, 1.024 ± 0.0033
- GTTTATGGAC — within error, 1.02 ± 0.011
- GGAATGTTAG — within error, 0.986 ± 0.012
- TGAAAGGCTC — within error, 1.1 ± 0.14
- TATCGGATAA — within error, 0.9947 ± 0.0037
- AAGATGTATT — lower, 0.9561 ± 0.0015
- GGTAAAGTTG — within error, 1.07 ± 0.098
- AAGCACTAGG — higher, 1.1916 ± 0.0011
- GGTAATTTTT — within error, 1.01 ± 0.034
- TTTACCCCAA — higher, 1.15 ± 0.095
- GTCAGAGGGT — the same, 0.994 ± 0.013
- CCATCTCTGG — within error, 0.979 ± 0.022
- CAGGTGTTTG — higher, 1.39 ± 0.055
- ACTGGTTAGT — within error, 1 ± 0.045
- ACTTGGCAAT — higher, 4.347 ± 0.014
- TTCATTTGGT — within error, 0.983 ± 0.025
- ATCCGAGATG — higher, 1.034 ± 0.0074
- TAAAATTTGT — within error, 1.01 ± 0.05
- CCATAGTTTG — within error, 0.993 ± 0.018
- TTGAGGTATA — within error, 0.987 ± 0.025
- GATACGCCAC — higher, 2.11 ± 0.06
- TGCTTATTTT — within error, 1.01 ± 0.065
- ATATGCTGGT — within error, 0.982 ± 0.014
- TGACTTGCGT — within error, 0.971 ± 0.042
- ATGGGGAGTC — within error, 0.985 ± 0.035
- TTTCATTTTG — within error, 1.03 ± 0.017
- ACAGCAGTGT — within error, 1.03 ± 0.035
- CGTAGGGTGT — within error, 1 ± 0.022
- AATAAACGCT — within error, 1.04 ± 0.074
- GGGGGTTTGA — within error, 1 ± 0.022
- TTGTTGGGGG — the same, 0.994 ± 0.027
- ATTTATGATA — within error, 0.99 ± 0.008
- AATATTTTGT — within error, 0.9833 ± 0.004
- GTGGGAACCT — higher, 1.45 ± 0.29
- TTATTGTTAC — within error, 1.03 ± 0.036
- TACTCGGGAA — higher, 3.05 ± 2
- TATATTGGGG — within error, 0.991 ± 0.018
- TGATAGAGTG — within error, 1.01 ± 0.074
- TATACTTGGC — within error, 1.07 ± 0.059
- TTTAATCTG — within error, 0.962 ± 0.021
- ACTAGTTTTC — lower, 0.9611 ± 0.0091
- CACGTTGCCT — within error, 0.979 ± 0.052
- CCGATGGGCC — higher, 1.22 ± 0.028
- TTATTACGCT — within error, 0.9981 ± 0.0094
- GCAAGTTGGG — within error, 1.01 ± 0.028
- AAGGATTTTT — within error, 0.998 ± 0.03
- TTTTTGCGGT — within error, 0.978 ± 0.025
- TTATTGCGGG — within error, 0.967 ± 0.019
- GGAAAGGGGG — within error, 1.01 ± 0.064
- TTTGAAAAGC — within error, 0.986 ± 0.018
- GCTATGGAGC — within error, 1.06 ± 0.079
- CGAGTCCAAG — within error, 1.01 ± 0.026
- CAGGGGTTGC — within error, 1.01 ± 0.013
- GAGGAAGATT — within error, 1.02 ± 0.021
- GGTAGAGTTG — within error, 0.9758 ± 0.0062
- GGGATTTGTT — within error, 0.9888 ± 0.0057
- ATGGGGGTAC — within error, 0.998 ± 0.014
- CGGGCGAGGG — lower, 0.959 ± 0.011
- CGTGTCCTCG — within error, 1.04 ± 0.088
- GGATGGAAGG — within error, 0.963 ± 0.033
- TTTAATTATG — within error, 1.02 ± 0.034
- AGTGGTACCG — within error, 0.99 ± 0.024
- TATCGGTTGT — higher, 1.03 ± 0.015
- ATTATTGGTG — higher, 1.018 ± 0.0046
- GTTTGAATAT — within error, 0.984 ± 0.047
- TTGGACTACT — within error, 0.984 ± 0.035
- ACGAATAAGG — within error, 1.03 ± 0.021
- TGAGGCTATG — within error, 1 ± 0.021
- GCCTGTTTGG — within error, 1.014 ± 0.01
- ATCTAGGCAG — within error, 0.9915 ± 0.0043
- TTGGGTATGT — within error, 1.01 ± 0.038
- ACGCCGGATT — within error, 1.01 ± 0.027
- TTACTCCTTT — within error, 1 ± 0.017
- GTTTGGGGCT — within error, 0.989 ± 0.019
- AGCTGGGGGG — within error, 0.982 ± 0.044
- CTAGGCACAT — higher, 1.1 ± 0.016
- ATCTTAAGAT — within error, 0.984 ± 0.066
- CAAGGGATTT — within error, 0.982 ± 0.036
- CTGTATTTGG — within error, 1 ± 0.012
- TCAGTTGTGC — within error, 1.01 ± 0.042
- CAAGGATTTT — within error, 0.9929 ± 0.0012
- AATCATTTTT — within error, 0.986 ± 0.026
- CGTGCAAAGA — within error, 1.77 ± 1.1
- GGATCGTTGA — within error, 0.977 ± 0.019
- GCTTGCAAGG — within error, 0.991 ± 0.017
- GTGGGTTATC — within error, 1.004 ± 0.007
- GTTGCAATTT — higher, 1.16 ± 0.13
- CAGCAGAGGG — within error, 1.01 ± 0.01
